From paper PMC9022995, “Sequence and structural variations determining the recruitment of WNK kinases to the KLHL3 E3 ligase” (Biochemical Journal, 2022)
Square brackets hold non-standard residues; d marks the D form. Ends that are not written are not given here. Peptide text beside a SMILES is read from it. Lumio green = fluorophore conjugated via N-terminal linker CCPGCCGGGG; Rhodamine‑110 = fluorophore on the N-terminus; pT = C[C@@H](OP(=O)(O)O)[C@H](N)C(=O)O

Assays:
[1] = test system: WNK3 protein levels in HEK293 cells co-transfected with KLHL3-FLAG; assay: KLHL3-mediated degradation of WNK3 on co-transfection, immunoblotting for WNK3 protein levels; assay type: cell-based; conditions: WNK3-HA wild type or mutant with increasing KLHL3-FLAG, 48 h post transfection, immunoblot, three independent experiments, mean ± SEM
Method: Figure 3. T541E substitution in WNK3 affects its KLHL3-targeted degradation in HEK293 cells. (A) WNK3-HA protein levels were investigated in HEK293 cells transfected with either wild type or mutant constructs and increasing concentrations of KLHL3-FLAG. A representative blot is presented. (B) Quantitative results of three independent experiments. Data are mean ± SEM. * P < 0.01, ** P < 0.0005.
HEK293 cells (ATCC® CRL-1573) were grown in Dulbecco's modified Eagle's medium (DMEM) supplemented with 10% fetal bovine serum to 70–80% confluence and transfected using Lipofectamine 2000 (Life Technologies, Inc.) with wild type or mutant WNK3-HA [46] and with different concentrations of KLHL3-FLAG [42]. Forty-eight hours post transfection, cells were lysed and protein concentration was quantified by the BCA protein assay (Pierce). Samples were diluted in Laemmli buffer and subjected to SDS–PAGE. Proteins were transferred to PVDF membranes which were then blocked for 1 h in 10% (w/v) non-fat milk dissolved in TBS- Tween 20 0.1% (TBSt). Antibodies were diluted in 5% (w/v) non-fat milk-TBSt. Incubation with HRP-coupled primary antibodies was performed overnight. Immunoblots were developed using radiographic film.
Lysis buffer: 50 mM Tris–HCl (pH 7.5), 1 mM EGTA, 1 mM EDTA, 50 mM sodium fluoride, 5 mM sodium pyrophosphate, 1 mM sodium orthovanadate, 1% (w/v) IGEPAL CA-630, 270 mM sucrose, 0.1% (v/v) 2-mercaptoethanol, and protease inhibitors (Complete tablets (Roche Applied Science).

[2] = target: T1, KLHL3 Kelch domain (GST-KLHL3, a.a. 298–587) (Homo sapiens, UniProt Q9UH77); assay: Fluorescence polarisation assay for the binding of WNK3 variants; conditions: 25°C; for Kd: GST-KLHL3 a.a. 298–587, 50 mM Tris–HCl pH 7.5, 150 mM NaCl, 2 mM DTT, one site specific binding with Hill slope, three technical replicates per point
T1 construct: using KLHL3 Kelch domain (GST-KLHL3, a.a. 298–587, MRC-PPU plasmid DU44387); host or cells: E. coli BL21
T1 sequence (Q9UH77 298-587): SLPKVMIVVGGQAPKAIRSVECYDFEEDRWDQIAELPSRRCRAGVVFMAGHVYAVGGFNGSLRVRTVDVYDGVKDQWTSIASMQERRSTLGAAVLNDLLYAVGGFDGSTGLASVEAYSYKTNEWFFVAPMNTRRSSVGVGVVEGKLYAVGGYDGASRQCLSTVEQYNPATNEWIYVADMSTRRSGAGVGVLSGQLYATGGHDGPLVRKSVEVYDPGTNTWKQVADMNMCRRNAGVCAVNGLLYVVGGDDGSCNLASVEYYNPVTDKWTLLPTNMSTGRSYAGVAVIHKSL
Method: Figure 2. Analysis of the interaction between KLHL3 and WNK3 variants by fluorescence polarisation. Purified GST-KLHL3 a.a. 298–587 was diluted appropriately and mixed at a 1 : 1 volume ratio with 20 nM Lumino-Green-labelled WNK3 peptides to the concentration stated in the Figure, with the peptide concentration consistent at 10 nM. Fluorescence polarisation measurements were recorded and corrected to the fluorescent probe alone. Each data point represents three technical replicates. One site-specific binding with hill slope was assumed and the disassociation constant was obtained. Binding curves, assuming one-site-specific binding, were then generated with Prism6 using milli-polarization (mP) units. TEXT PRINTED IN THE PICTURE: WNK3 [a.a.537-547] […] E541: KD > 50 μM | WNK3 [a.a.537-547] pT541: KD > 50 μM
For fluorescence polarisation measurements of WNK3 variants, the Kelch domain of human KLHL3 (a.a. […]) was cloned into the bacterial expression vector pGEX6P-1 (MRC-PPU plasmid DU44387) and expressed as a GST fusion protein as previously described. Briefly, E. coli BL21 cells were transformed with plasmid DNA and grown at 37°C in LB broth containing 100 µg/ml ampicillin until OD600 reached 0.6. Cells were then cultured at 16°C for a further 16 h in the presence of 50 µM IPTG for protein induction. Harvested cells were lysed by sonication and the lysate clarified by centrifugation. GST fusion protein was affinity purified using 0.5 ml glutathione–sepharose beads and eluted in buffer (50 mM Tris–HCl pH 7.5, 150 mM NaCl, 2 mM DTT) containing 20 mM glutathione.
Fluorescence polarisation measurements were performed at 25°C using KLHL3 Kelch domain (GST-KLHL3, a.a. 298–587, MRC-PPU plasmid DU44387) buffered in 50 mM Tris–HCl pH 7.5, 150 mM NaCl, 2 mM DTT. All peptides (ECEETEVDQHV, WNK3 a.a. 537–547), (ECEET(P)EVDQHV, WNK3 a.a. 537–547, Thr541 is phosphorylated), and (ECEEEEVDQHV, WNK3 a.a. 537–547, Thr541 is mutated to Glu) were conjugated to the Lumio green fluorophore via an N-terminal linker (CCPGCCGGGG) and dialysed into assay buffer before use. Samples were prepared with 10 nM Lumio-green labelled peptide and the indicated concentration of protein in a final volume of 30 µl. Fluorescence polarisation measurements were recorded using a BMG PheraStar plate reader, with an excitation wavelength of 485 nm and an emission wavelength of 538 nm, and measurements were corrected to the fluorescent probe alone. Data analysis and graphing were performed in GraphPad Prism6. One Site Specific binding with Hill Slope was assumed (model Y = Bmax × X^h/KD^h + X^h) and the disassociation constant, and associated standard error was obtained.

[3] = target: Lumio green-labelled WNK3 degron peptide (…, WNK3 a.a. 537–547) (human); assay: fluorescence polarisation; 10 nM Lumio green-labelled WNK3 peptide titrated with GST-KLHL3 Kelch domain; 25°C; 50 mM Tris–HCl pH 7.5, 150 mM NaCl, 2 mM DTT; one site specific binding with Hill slope
[4] = target: Lumio green-labelled phospho-WNK3 peptide (ECEET(P)EVDQHV, WNK3 a.a. 537–547, Thr541 phosphorylated) (human); assay: as above
[5] = target: T2, KLHL3 Kelch domain (a.a. 298–587) (human, UniProt Q9UH77-1 298-587); assay: FP; 9.5 mM Cl-
T2 chain: T1 sequence (Q9UH77 298-587)

[6] = target: T2, KLHL3 Kelch domain (a.a. 298–587); assay: FP; 18 mM Cl-
[7] = target: T2, KLHL3 Kelch domain (a.a. 298–587); assay: FP; 0 mM Cl-
[8] = target: T2, KLHL3 Kelch domain (a.a. 298–587); assay: FP; 4.7 mM Cl-
[9] = target: T2, KLHL3 Kelch domain (a.a. 298–587); assay: FP; 150 mM F-
[10] = target: T3, KLHL3 Kelch domain (a.a. 298–587) (human, UniProt Q9UH77-1 298-587); assay: fluorescence polarisation; 10 nM Rhodamine-110 labelled peptide with KLHL3 (a.a. 298–587) from 0 to 3200 or 6400 nM; 25°C; test of the effect of chloride concentration; one site total fit; conditions: both partners purified
T3 construct: Kelch-like protein 3 (KLHL3), human, Kelch domain, a.a; 298–587; Vector pNIC28-Bsa4; the hexahistidine tag was cleaved with TEV protease; It is not clear whether Addgene #110251 names the vector or the construct; also called KLHL3 (a.a. 298–587); source: E. coli BL21(DE3)-pRARE, purified (nickel-sepharose, SEC, TEV cleavage); not shown: His6, N-terminal, cleaved
T3 sequence (looked up): T1 sequence (Q9UH77 298-587)

[11] = target: T2, KLHL3 Kelch domain (a.a. 298–587); assay: FP; 75 mM Cl-
[12] = target: T2, KLHL3 Kelch domain (a.a. 298–587); assay: FP; 150 mM Cl-
[13] = target: T2, KLHL3 Kelch domain (a.a. 298–587); assay: FP; 2.4 mM Cl-
[14] = target: T2, KLHL3 Kelch domain (a.a. 298–587); assay: FP; 37 mM Cl-
[15] = target: T4, GST-KLHL3 Kelch domain (a.a. 298–587) (human, UniProt Q9UH77 298-587); assay: FP
T4 chain: T1 sequence (Q9UH77 298-587)

[16] = 10 nM Lumio-green labelled peptide (N-terminal linker CCPGCCGGGG), 30 µl, ex 485/em 538 nm, repeated at least twice

WNK3 T541E: WNK3-HA mutant T541E transfected in HEK293 cells
WNK3 levels / KLHL3-mediated degradation (in words) [1]: noticeably resistant to degradation

CC(C)[C@H](NC(=O)[C@H](Cc1c[nH]cn1)NC(=O)[C@H](CCC(N)=O)NC(=O)[C@H](CC(=O)O)NC(=O)[C@@H](NC(=O)[C@H](CCC(=O)O)NC(=O)[C@@H](NC(=O)[C@H](CCC(=O)O)NC(=O)[C@H](CCC(=O)O)NC(=O)[C@H](CS)NC(=O)[C@@H](N)CCC(=O)O)[C@@H](C)OP(=O)(O)O)C(C)C)C(=O)O [WNK3 [a.a.537-547] pT541] (H-ECEE[pT]EVDQHV-OH; N-terminus and C-terminus assumed)
Kd [2, 16]: > 50 µM
KLHL3 interaction (in words) ([2]; fluorescence polarisation, GST-KLHL3 a.a. 298–587, 10 nM Lumio-green labelled peptide, pH 7.5): too severely destabilised to measure a dissociation constant

T541A: WNK3-HA mutant T541A transfected in HEK293 cells
WNK3 levels / KLHL3-mediated degradation (in words) [1]: reduced KLHL3-mediated degradation of WNK3

GST-KLHL3 Kelch domain (a.a. 298–587) (from UniProt Q9UH77 298-587) (domain or fragment)
Kd [3]: 670 nM
Kd [4]: > 50 µM

ECEEEEVDQHV [WNK3 [a.a.537-547] E541]
Kd ([2]; printed in Figure 2 picture, 10 nM Lumio-green labelled peptide): > 50 µM

WNK3: wild type WNK3-HA transfected in HEK293 cells
WNK3 levels / KLHL3-mediated degradation (in words) [1]: significantly lower than in the absence of KLHL3, even at the lowest amounts of KLHL3 DNA used for transfection

ECEETEVDQHV [WNK3 [a.a.537-547] WT]
Kd [2, 16]: 0.67 µM

B1: Rhodamine-110 labelled WNK4 degron peptide (EPEEPEADQHQ) (peptide)
peptide: {Rhodamine‑110}-EPEEPEADQHQ
notes: WNK4 acidic degron motif, residues 557–567; also called 11-residue degron from WNK4; source: synthetic peptide (Fmoc solid phase, purified by HPLC)
Kd [5]: 600 nM
Kd [6]: 600 nM
Kd [7]: 700 nM
Kd [8]: 600 nM
Kd [9]: 300 nM
binding result [10]: binds
Kd [11]: 600 nM
Kd [12]: 700 nM
Kd [13]: 600 nM
Kd [14]: 600 nM

{Rhodamine‑110}-ECEETEVDQHV [Rhodamine-110 labelled WNK3 degron peptide (ECEETEVDQHV)]
Kd [5]: 1300 nM
Kd [6]: 1400 nM
Kd [7]: 1700 nM
Kd [8]: 1700 nM
Kd [9]: 1100 nM
Kd [11]: 1300 nM
Kd [12]: 1300 nM
Kd [13]: 1200 nM
Kd [14]: 1500 nM

{Lumio green}-CCPGCCGGGGECEEEEVDQHV (cysteine pairing not given here) [Lumio green-labelled WNK3 T541E peptide (ECEEEEVDQHV, WNK3 a.a. 537–547, Thr541 mutated to Glu)]
Kd [15]: > 50 µM
